± gives the uncertainty stated by the source.
Assay: self-splicing fitness, log relative to wild type (ln ratio); higher = more splicing; Tetrahymena group I intron in knt gene, E. coli kanamycin selection, DiMSum; sequences stand for … in CUCUCU…GGAGGGAAAAGUUAUCAGGCAUGCACCUGGUAGCUAGUCUUUAAACCAAUAGAUUGCAUCGGUUUAAAAGGCAAGACCGUCAAAUUGCGGGAAAGGGGUCAACAGCCGUUCAGUACCAAGUCUCAGGGGAAACUUUGAGAUGGCCUUGCAAAGGGUAUGGUAAUAAGCUGACGGACAUGGUCCUAACCACGCAGCCAAGUCCUAAGUCAACAGAUCUUCUGUUGAUAUGGAUGCAGUUCACAGACUAAAUGUCGGUCGGGGAAGAUGUAUUCUUCUCAUAAGAUAUAGUCGGACCUCUCCUUAAUGGGAGCUAGCGGAUGAAGUGAUGCAACACUGGAGCCGCUGGGAACUAAUUUGUAUGCGAAAGUAUAUUGAUUAGUUUUGGAGUACUCGUGGUCG
Method in brief: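 Six replicate transformations of E. coli BL21(DE3) with a pET-22b(+) library were grown overnight at 37°C or 30°C. The library randomised all eight P1ex-region intron nucleotides, the intron lying in the knt kanamycin-resistance gene, and plates were LB agar with or without 25 μg/mL kanamycin plus 100 μg/mL carbenicillin, 50 μM IPTG and 0.2% rhamnose. Pooled colonies were amplicon-sequenced on an Illumina HiSeq 2500, and fitness is the DiMSum error-weighted combination of wild-type-normalised replicate fold changes, kanamycin versus none.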

Row | Sequence | self-splicing fitness (ln) (30 °C) | self-splicing fitness (ln) (37 °C)
1 | UAAAAGCAAUAUUACGGCAG | -0.504 ± 0.079 | -0.106 ± 0.097
2 | UUACAGCAAUAUUACGGCCC | -0.167 ± 0.33 | 
3 | AGUUAGCAAUAUUACGGGGG | -2.04 ± 0.27 | -1.38 ± 0.31
4 | AAGCAGCAAUAUUACGACGA | -0.888 ± 0.089 | -0.307 ± 0.094
5 | CCUAAGCAAUAUUACGGGGC | -2.45 ± 0.2 | -2.61 ± 0.22
6 | UUAUAGCAAUAUUACGCUUU | -2.99 ± 0.28 | -2.6 ± 0.26
7 | AGGUAGCAAUAUUACGGCGC | -0.0707 ± 0.015 | 0.163 ± 0.033
8 | UUGUAGCAAUAUUACGGCUA |  | 0.21 ± 0.5
9 | UCCCAGCAAUAUUACGUCUA | -2.5 ± 0.21 | -2.12 ± 0.22
10 | AAGAAGCAAUAUUACGCCAG | -2.87 ± 0.26 | -2.3 ± 0.27
11 | GAGAAGCAAUAUUACGUACC | -1.18 ± 0.23 | -0.414 ± 0.35
12 | CCCGAGCAAUAUUACGCGCC |  | -1.22 ± 0.35
13 | AAGAAGCAAUAUUACGCGGU | -3.58 ± 0.3 | -1.54 ± 0.19
14 | UCUAAGCAAUAUUACGCCCA | -1.48 ± 0.15 | -0.486 ± 0.17
15 | AGUAAGCAAUAUUACGUGUC | -3.49 ± 0.21 | -2.24 ± 0.2
16 | AAACAGCAAUAUUACGCAUG | -2.12 ± 0.077 | -1.58 ± 0.089
17 | UCCAAGCAAUAUUACGCUUU | -3.8 ± 0.18 | -2.16 ± 0.19
18 | GUGUAGCAAUAUUACGAGCG |  | -0.927 ± 0.34
19 | CGGGAGCAAUAUUACGAAUA | -2.55 ± 0.36 | -2.52 ± 0.39
20 | GUUCAGCAAUAUUACGCGUC | -1.41 ± 0.071 | -0.257 ± 0.078
21 | GUGGAGCAAUAUUACGGCCU | -1.74 ± 0.19 | -0.55 ± 0.3
22 | AGUGAGCAAUAUUACGUACG | -2.22 ± 0.16 | -1.3 ± 0.13
23 | ACCAAGCAAUAUUACGCUUA | -1.86 ± 0.11 | -1.08 ± 0.11
24 | UACUAGCAAUAUUACGUACG | -2.76 ± 0.1 | -1.31 ± 0.091
25 | UACGAGCAAUAUUACGAAAU |  | -1.69 ± 0.25
26 | UAAUAGCAAUAUUACGAAGC |  | -1.83 ± 0.33

Row | Sequence | self-splicing fitness (ln) (30 °C) | self-splicing fitness (ln) (37 °C)
27 | CGCUAGCAAUAUUACGAAUA | -2.58 ± 0.19 | -2.57 ± 0.23
28 | CGGGAGCAAUAUUACGCAGU |  | -1.82 ± 0.29
29 | CAGCAGCAAUAUUACGCCUA | -0.345 ± 0.076 | 0.522 ± 0.094
30 | AACGAGCAAUAUUACGACAA | -2.78 ± 0.24 | -0.872 ± 0.18
31 | GGUCAGCAAUAUUACGAAGG | -0.594 ± 0.14 | -0.251 ± 0.22
32 | AUGUAGCAAUAUUACGGUAA | -2.15 ± 0.23 | -1.36 ± 0.17
33 | ACGGAGCAAUAUUACGGAGA |  | -2.01 ± 0.46
34 | AAUGAGCAAUAUUACGUGCG | -2 ± 0.15 | -1.99 ± 0.3
35 | UUACAGCAAUAUUACGCGCU | -2.93 ± 0.37 | -2.04 ± 0.31
36 | CUGCAGCAAUAUUACGUGGU | -3.34 ± 0.18 | -3.71 ± 0.31
37 | CCCAAGCAAUAUUACGACCU | -3.38 ± 0.26 | -2.44 ± 0.25
38 | ACACAGCAAUAUUACGAUGU | -3.46 ± 0.1 | -1.18 ± 0.08
39 | GUAGAGCAAUAUUACGAAAC | 0.2 ± 0.34 | -0.546 ± 0.32
40 | CCAUAGCAAUAUUACGGUUG | -1.43 ± 0.082 | -0.827 ± 0.12
41 | UUAUAGCAAUAUUACGAUGG | -1.24 ± 0.1 | -0.128 ± 0.14
42 | AAAUAGCAAUAUUACGCACC | -1.34 ± 0.21 | -0.223 ± 0.23
43 | AGGAAGCAAUAUUACGACGG | -1.98 ± 0.17 | -0.95 ± 0.23
44 | AUGAAGCAAUAUUACGACCC | -1.6 ± 0.22 | 
45 | UGAAAGCAAUAUUACGCGUG | -0.951 ± 0.049 | -0.284 ± 0.064
46 | GCAUAGCAAUAUUACGCGUU | -2.03 ± 0.11 | -2.14 ± 0.17
47 | AGGUAGCAAUAUUACGAGGA | -3.39 ± 0.034 | -2.43 ± 0.041
48 | CUCGAGCAAUAUUACGUACG | -3.49 ± 0.22 | -2.86 ± 0.28
49 | UGGGAGCAAUAUUACGUCCC | -3.01 ± 0.4 | -1.84 ± 0.41
50 | UUGGAGCAAUAUUACGUGCC | -3.24 ± 0.32 | -2.74 ± 0.36
51 | AUAUAGCAAUAUUACGAUCU | 0.333 ± 0.15 | 0.288 ± 0.13
52 | UAUAAGCAAUAUUACGGAGU | -3.46 ± 0.32 | -1.46 ± 0.2

Row | Sequence | self-splicing fitness (ln) (30 °C) | self-splicing fitness (ln) (37 °C)
53 | UAGGAGCAAUAUUACGUGUU | -2.97 ± 0.13 | -2.51 ± 0.17
54 | GCCGAGCAAUAUUACGUACA | -2.85 ± 0.18 | -1.85 ± 0.17
55 | CGAAAGCAAUAUUACGAACG | -1.08 ± 0.13 | -0.291 ± 0.14
56 | AUUGAGCAAUAUUACGUUCC | -1.94 ± 0.23 | -2.1 ± 0.3
57 | GUGGAGCAAUAUUACGAAUA | -4.24 ± 0.47 | -2.33 ± 0.38
58 | AGCGAGCAAUAUUACGUAUU | -3.54 ± 0.17 | -1.79 ± 0.16
59 | AAGUAGCAAUAUUACGUCCC | -0.0634 ± 0.3 | -0.156 ± 0.24
60 | GGAGAGCAAUAUUACGUUCA | -1.39 ± 0.17 | -0.277 ± 0.21
61 | AGCUAGCAAUAUUACGAUCU | 0.121 ± 0.12 | 0.532 ± 0.13
62 | AAAAAGCAAUAUUACGGAAA | -2.24 ± 0.18 | -1.58 ± 0.19
63 | CUUCAGCAAUAUUACGGACA | -3.26 ± 0.35 | -2.3 ± 0.26
64 | CGACAGCAAUAUUACGACAC | -1.96 ± 0.13 | -1.97 ± 0.22
65 | GAUGAGCAAUAUUACGCAAC | -2.76 ± 0.21 | -1.85 ± 0.21
66 | UUAAAGCAAUAUUACGUCCG | -0.581 ± 0.12 | 0.242 ± 0.15
67 | ACGAAGCAAUAUUACGAGUU | -3.04 ± 0.11 | -1.91 ± 0.15
68 | CUCGAGCAAUAUUACGGUUU | -3.87 ± 0.27 | 
69 | UAUUAGCAAUAUUACGUGGC |  | -1.84 ± 0.39
70 | AAUCAGCAAUAUUACGUGCU | -3.39 ± 0.17 | -2.56 ± 0.17
71 | CCUUAGCAAUAUUACGCCCG | -1 ± 0.13 | -1.49 ± 0.21
72 | CACAAGCAAUAUUACGUGUU | -3.95 ± 0.12 | -3.28 ± 0.13
73 | ACUCAGCAAUAUUACGACUA | -0.633 ± 0.12 | -0.128 ± 0.12
74 | GCCGAGCAAUAUUACGAGAG | -3.14 ± 0.3 | -0.44 ± 0.19
75 | GUGAAGCAAUAUUACGUACG | -0.64 ± 0.16 | 0.312 ± 0.15
76 | CUCCAGCAAUAUUACGCAAU | -4.47 ± 0.41 | -2.43 ± 0.2
77 | GCGAAGCAAUAUUACGUAUU | -3.7 ± 0.15 | -0.392 ± 0.093
78 | GGCUAGCAAUAUUACGUAUC | -0.368 ± 0.098 | -0.254 ± 0.12

Source: the supplement of paper PMC7877785
